In PMC12806343, “Aptamer‐Engineered Ellipsometry for Clinical Detection of BALF‐Derived Exosomes: Multi‐Level Engineering for Prognostic Evaluation of Immunotherapy Responses”:

How the values were obtained:
[1] = target: PD-L1 on MDA-MB-231-derived exosomes (UniProt Q9NZQ7 19-290); assay: ellipsometry (DP-SIS); exosomes 1e1-1e8 particles/mL; no detectable signal; BLI: 1x PBS pH 7.4, aptamers 3-12 uM, 300 s association, 600 s dissociation, temperature not stated; EMSA: TBE-PAGE, binding buffer composition not given; conditions: protein: native; stem-loop
Chain of PD-L1 on MDA-MB-231-derived exosomes (Q9NZQ7 19-290): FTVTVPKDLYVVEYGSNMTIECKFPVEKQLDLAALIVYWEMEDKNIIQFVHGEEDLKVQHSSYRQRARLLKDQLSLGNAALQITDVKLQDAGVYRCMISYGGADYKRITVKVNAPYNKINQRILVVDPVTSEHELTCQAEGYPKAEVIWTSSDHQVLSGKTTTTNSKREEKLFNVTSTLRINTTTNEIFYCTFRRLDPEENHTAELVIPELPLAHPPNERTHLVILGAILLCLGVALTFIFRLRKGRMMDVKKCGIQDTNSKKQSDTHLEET

[2] = target: recombinant human PD-L1 (Homo sapiens, UniProt Q9NZQ7 19-238); assay: BLI; PD-L1 immobilized on AR probe; BLI: 1x PBS pH 7.4, aptamers 3-12 uM, 300 s association, 600 s dissociation, temperature not stated; EMSA: TBE-PAGE, binding buffer composition not given; conditions: protein: commercial; stem-loop
Chain of recombinant human PD-L1 (Q9NZQ7 19-238): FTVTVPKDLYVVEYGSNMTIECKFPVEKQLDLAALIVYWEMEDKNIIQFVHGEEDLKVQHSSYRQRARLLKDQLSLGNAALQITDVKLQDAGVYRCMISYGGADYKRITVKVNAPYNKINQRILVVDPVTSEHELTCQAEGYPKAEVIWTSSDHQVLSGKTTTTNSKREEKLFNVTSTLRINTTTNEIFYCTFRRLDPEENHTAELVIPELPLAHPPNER

| Binder | binding result [1] | Kd [2] [nM] |
| --- | --- | --- |
| ATAGTCCCTGGCGTGCTTGGTCGGCAGAGCAGGTACGGTGTCA (structured_DNA, 5' amine (NH2)) [Apt45] | no binding | ~186 |
| TGACACCGTACCTGCTCTCCGCGCGAAGCACGCCAGGGACTAT (structured_DNA, 5' amine (NH2)) [Apt13] | – | ~714 |
| GTACCTGCTCTCCGCGCGAAGCACGCCAGGGACT (structured_DNA, 5' amine (NH2)) [Tr-Apt13] | – | ~991 |
